Source: US20260242478A1 (published 2026)
Where no end group is shown, it is not given here.

B1: Phage-873 (peptide)
peptide: YCDGHAAEFMMKCL
notes: not shown: pIII coat protein of the bacteriophage to which the peptide is fused
B2: Phage-842 (peptide)
peptide: YCDGHSQEYMLKCL
modifications: cysteine pairing not given here; also: displayed on phage by fusion to pIII, pIII and linker sequence not given here
notes: Peptide-87 library clone, tested as clonal phage supernatant
B3: Phage-868 (peptide)
peptide: YCDGHAEEYLWKCL
modifications: cysteine pairing not given here; also: fused to phage pIII coat protein (sequence and linker not given here)
notes: as for B1
B4: Phage-848 (peptide)
peptide: YCHGHLQEYMAKCL
notes: as for B2
B5: Phage-845 (peptide)
peptide: YCDGHIGEYMVKCL
notes: as for B2
B6: Phage-858 (peptide)
peptide: YCDGHAEKYMQKCL
notes: Peptide-87 library clone, tested as clonal phage (peptide fused to pIII)
B7: Phage-843 (peptide)
peptide: YCDGHVEPYLSKCL
modifications: cysteine pairing not given here; also: displayed on phage by fusion to pIII, pIII and linker sequence not given here
notes: as for B2
B8: Phage-866 (peptide)
peptide: YCDGHLPEYIFKCL
modifications: cysteine pairing not given here; also: fused to phage pIII coat protein (sequence and linker not given here)
notes: as for B1
B9: Phage-854 (peptide)
peptide: YCEGHLPEYMQKCL
notes: as for B6
B10: Phage-862 (peptide)
peptide: YCEGHLPDYMQKCL
notes: as for B6
B11: Phage-853 (peptide)
peptide: YCSGHLPEYMQKCL
notes: as for B6
B12: Phage-871 (peptide)
peptide: YCDGHTQAYIQKCL
notes: as for B1
B13: Phage-849 (peptide)
peptide: YCDGHSPEYMNKCL
notes: as for B2
B14: Phage-846 (peptide)
peptide: YCEGHLAQYMNKCL
notes: as for B2
B15: Phage-874 (peptide)
peptide: YCDGHLSEYMAKCL
notes: as for B1
B16: Phage-861 (peptide)
peptide: YCSGHSAEYMLKCL
notes: as for B6
B17: Phage-875 (peptide)
peptide: YCEGHSEMYMKKCL
notes: as for B1
B18: Phage-870 (peptide)
peptide: YCDGHSGVYMWKCL
notes: as for B1
B19: Phage-869 (peptide)
peptide: YCAGHSAEYMAKCL
notes: as for B1
B20: Phage-867 (peptide)
peptide: YCSGHLPEYMGKCL
modifications: cysteine pairing not given here; also: fused to phage pIII coat protein (sequence and linker not given here)
notes: as for B1
B21: Phage-847 (peptide)
peptide: YCDGHVQEYMQKCL
notes: as for B2
B22: Phage-857 (peptide)
peptide: YCDGHASEYMAKCL
notes: as for B6
B23: Phage-860 (peptide)
peptide: YCEGHSAEYMEKCL
notes: as for B6
B24: Phage-851 (peptide)
peptide: YCEGHSAEYMLKCL
notes: as for B2
B25: Phage-859 (peptide)
peptide: YCEGHAIEYLAKCL
notes: as for B6
B26: Phage-855 (peptide)
peptide: YCDGHSLQYMDKCL
notes: as for B6
B27: Phage-863 (peptide)
peptide: YCDGHLEEYMVKCM
notes: as for B6
B28: Phage-844 (peptide)
peptide: YCDGHKPQYMEKCL
notes: as for B2
B29: Phage-865 (peptide)
peptide: YCAGHSQEHIQKCL
notes: as for B6
B30: Phage-850 (peptide)
peptide: YCDGHAPVYMAKCL
notes: as for B2
B31: Phage-856 (peptide)
peptide: YCDGHYPEYMSKCL
notes: as for B6
B32: Phage-872 (peptide)
peptide: YCDGHAIQYIGKCL
notes: as for B1
B33: Phage-852 (peptide)
peptide: YCDGHHIEYLAKCL
notes: as for B2
B34: Phage-864 (peptide)
peptide: YCEGHLQTYMAKCL
notes: as for B6

Legend:
[1] = molecular target: T1, Anti-CD28 Fab (SEQ ID NOs: 696, 697); assay: phage binding ELISA on Fab coated plate; wells pre-incubated with CD28 antigen as competitor
T1 construct: In the phage ELISA the Fab was biotinylated and captured on neutravidin coated plates
T1 sequence (VH, as listed by the source, chain 1 of 2): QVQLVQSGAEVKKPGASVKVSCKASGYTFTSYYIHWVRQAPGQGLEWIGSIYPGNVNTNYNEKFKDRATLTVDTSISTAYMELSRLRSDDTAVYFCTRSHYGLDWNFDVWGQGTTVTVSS
T1 sequence (VL, as listed by the source, chain 2 of 2): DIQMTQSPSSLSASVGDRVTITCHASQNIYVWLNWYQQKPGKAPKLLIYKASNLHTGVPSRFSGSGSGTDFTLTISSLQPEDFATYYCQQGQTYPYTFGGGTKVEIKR
Experimental: (§1) After panning, phage infected bacteria were plated out and colonies picked into 96 well blocks. Clonal phage was then amplified and separated from bacterial cells via centrifugation.
(§2) Clonal phage were harvested as crude supematants and screened via standard ELISAs. […] Prior to the addition of clonal phage, wells were incubated with blocking buffer and CD28 antigen or blocking buffer alone. Without washing or aspirating, clonal phage supematants were then added to the wells and incubated for a short time. Wells were then washed followed by detection of bound phage using a horse radish conjugated anti-M13 antibody. Clonal phage of interest were then sent for sequence analysis.

[2] = molecular target: T1, Anti-CD28 Fab (SEQ ID NOs: 696, 697); assay: phage binding ELISA; biotinylated Fab on neutravidin plate, clonal phage supernatant, anti-M13 HRP detection;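 note: phage from clones picked after panning, added to wells pre-incubated with blocking buffer with or without CD28 antigen, then briefly incubated and washed before detection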
[3] = molecular target: T2, Anti-CD28 Fab (SEQ ID NOs: 696, 697); assay: phage binding ELISA on captured anti-CD28 Fab, wells pre-incubated with CD28 antigen as competitor;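 note: crude clonal phage supernatants added to wells preloaded with CD28 antigen, bound phage read by HRP-conjugated anti-M13 antibody, control wells got blocking buffer alone without CD28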
T2 construct: In the phage ELISA the Fab was biotinylated and captured on neutravidin coated plates
T2 sequence (VH, as listed by the source, chain 1 of 2): as the sequence (VH, as listed by the source, chain 1 of 2) above
T2 sequence (VL, as listed by the source, chain 2 of 2): as the sequence (VL, as listed by the source, chain 2 of 2) above
Experimental: as §1, §2

[4] = molecular target: T2, Anti-CD28 Fab (SEQ ID NOs: 696, 697); assay: phage binding ELISA, clonal phage on biotinylated anti-CD28 Fab captured on neutravidin plates, anti-M13 HRP detection
Experimental: as §1, §2

[5] = molecular target: T3, Anti-CD28 Fab (SEQ ID NOs: 696, 697); assay: phage binding ELISA, clonal phage on biotinylated anti-CD28 Fab captured on neutravidin plates;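 note: crude clonal phage supernatants added to wells pretreated with CD28 antigen or blocking buffer only, bound phage detected by HRP-linked anti-M13 antibody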
T3 construct: Biotinylated and captured on neutravidin coated plates in the phage ELISA
T3 sequence (VH, as listed by the source, chain 1 of 2): as the sequence (VH, as listed by the source, chain 1 of 2) above
T3 sequence (VL, as listed by the source, chain 2 of 2): as the sequence (VL, as listed by the source, chain 2 of 2) above
Experimental: as §1, §2

[6] = molecular target: T3, Anti-CD28 Fab (SEQ ID NOs: 696, 697); assay: phage binding ELISA on plate-bound anti-CD28 Fab, wells pre-incubated with CD28 antigen as competitor
Experimental: as §1, §2

Row | Binder | Anti-CD28 Fab signal in the presence of CD28 [3] | Anti-CD28 Fab (SEQ ID NOs: 696, 697) signal [4] | Anti-CD28 Fab (SEQ ID NOs: 696, 697) signal [5] | Anti-CD28 Fab signal in the presence of CD28 [6] | also measured
1 | B1 | – | – | – | – | Anti-CD28 Fab signal in the presence of CD28 [1]: 0.06; Anti-CD28 Fab (SEQ ID NOs: 696, 697) signal [2]: 1.72
2 | B2 | 0.05 | 1.76 | – | – | –
3 | B3 | – | – | – | – | Anti-CD28 Fab signal in the presence of CD28 [1]: 0.06; Anti-CD28 Fab (SEQ ID NOs: 696, 697) signal [2]: 1.73
4 | B4 | 0.07 | 1.76 | – | – | –
5 | B5 | 0.66 | 1.76 | – | – | –
6 | B6 | – | – | 1.74 | 0.06 | –
7 | B7 | 0.1 | 1.76 | – | – | –
8 | B8 | – | – | – | – | Anti-CD28 Fab signal in the presence of CD28 [1]: 0.09; Anti-CD28 Fab (SEQ ID NOs: 696, 697) signal [2]: 1.73
9 | B9 | – | – | 1.75 | 0.07 | –
10 | B10 | – | – | 1.73 | 0.07 | –
11 | B11 | – | – | 1.75 | 0.08 | –
12 | B12 | – | – | – | – | Anti-CD28 Fab signal in the presence of CD28 [1]: 0.06; Anti-CD28 Fab (SEQ ID NOs: 696, 697) signal [2]: 1.73
13 | B13 | 0.06 | 1.75 | – | – | –
14 | B14 | 0.07 | 1.76 | – | – | –
15 | B15 | – | – | – | – | Anti-CD28 Fab signal in the presence of CD28 [1]: 0.08; Anti-CD28 Fab (SEQ ID NOs: 696, 697) signal [2]: 1.72
16 | B16 | – | – | 1.73 | 0.08 | –
17 | B17 | – | – | – | – | Anti-CD28 Fab signal in the presence of CD28 [1]: 0.07; Anti-CD28 Fab (SEQ ID NOs: 696, 697) signal [2]: 1.72

Row | Binder | Anti-CD28 Fab signal in the presence of CD28 [3] | Anti-CD28 Fab (SEQ ID NOs: 696, 697) signal [4] | Anti-CD28 Fab (SEQ ID NOs: 696, 697) signal [5] | Anti-CD28 Fab signal in the presence of CD28 [6] | also measured
18 | B18 | – | – | – | – | Anti-CD28 Fab signal in the presence of CD28 [1]: 0.08; Anti-CD28 Fab (SEQ ID NOs: 696, 697) signal [2]: 1.73
19 | B19 | – | – | – | – | Anti-CD28 Fab signal in the presence of CD28 [1]: 0.07; Anti-CD28 Fab (SEQ ID NOs: 696, 697) signal [2]: 1.73
20 | B20 | – | – | – | – | Anti-CD28 Fab signal in the presence of CD28 [1]: 0.1; Anti-CD28 Fab (SEQ ID NOs: 696, 697) signal [2]: 1.73
21 | B21 | 0.07 | 1.76 | – | – | –
22 | B22 | – | – | 1.75 | 0.09 | –
23 | B23 | – | – | 1.73 | 0.07 | –
24 | B24 | 0.07 | 1.75 | – | – | –
25 | B25 | – | – | 1.74 | 0.07 | –
26 | B26 | – | – | 1.75 | 0.06 | –
27 | B27 | – | – | 1.73 | 0.06 | –
28 | B28 | 0.08 | 1.76 | – | – | –
29 | B29 | – | – | 1.73 | 0.09 | –
30 | B30 | 0.06 | 1.75 | – | – | –
31 | B31 | – | – | 1.75 | 0.06 | –
32 | B32 | – | – | – | – | Anti-CD28 Fab signal in the presence of CD28 [1]: 0.09; Anti-CD28 Fab (SEQ ID NOs: 696, 697) signal [2]: 1.72
33 | B33 | 0.1 | 1.75 | – | – | –
34 | B34 | – | – | 1.73 | 0.07 | –
